Measured values taken from IntAct's records for PubMed 19716822.

Target: srk2e_arath SRK2E (UniProt Q940H6)
Sequence (Q940H6 whole entry): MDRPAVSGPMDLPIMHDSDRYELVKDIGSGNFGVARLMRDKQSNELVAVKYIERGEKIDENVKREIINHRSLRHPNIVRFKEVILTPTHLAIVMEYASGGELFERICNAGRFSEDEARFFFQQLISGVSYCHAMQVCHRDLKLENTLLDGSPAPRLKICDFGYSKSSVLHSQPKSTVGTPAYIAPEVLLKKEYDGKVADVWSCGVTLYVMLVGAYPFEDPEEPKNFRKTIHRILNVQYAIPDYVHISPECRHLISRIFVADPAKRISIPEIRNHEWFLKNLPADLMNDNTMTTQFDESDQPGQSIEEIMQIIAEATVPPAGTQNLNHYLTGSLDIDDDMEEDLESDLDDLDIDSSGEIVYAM

effect of a mutation on the interaction: decreasing interaction
Substance: Respiratory burst oxidase homolog protein F (Arabidopsis thaliana (Mouse-ear cress)), O48538 S174A
